Assay results from publication PMC4701952, “Evolution of the Plant Reproduction Master Regulators LFY and the MADS Transcription Factors: The Role of Protein Structure in the Evolutionary Development of the Flower” (Frontiers in Plant Science, 2015).
Where a chain is given by its changes, count along the chain named. “And” between values parts separate entries of the source, which are not always exact repeats. Equal entries are not always repeated.

B1: SEP3^(75-178) construct (wild type) (domain or fragment, A. thaliana, UniProt O22456 75-178, looked up)
chain: YGAPEPNVPSREALAVELSSQQEYLKLKERYDALQRTQRNLLGEDLGPLSTKELESLERQLDSSLKQIRALRTQFMLDQLNDLQSKERMLTETNKTLRLRLADG
notes: cloned into pESPRIT002 (N-terminal 6x-His tag followed by a TEV site); also called SEP3 K-domain; oligomerisation domain of SEP3; source: E. coli BL21 (DE3) CodonPlusRIL, purified (Ni-Sepharose, TEV cleavage, Superdex 200 SEC); not shown: His6, N-terminal, cleaved
B2: SEP3^(75-178) Y105N (domain or fragment, A. thaliana, UniProt O22456 75-178, looked up)
chain: B1 chain with Y31N
notes: made with SEP3^(75-178) as the template; source: E. coli Rosetta2 (DE3) pLysS, purified (Ni-Sepharose, TEV cleavage, Superdex 200 SEC); not shown: His6, N-terminal, cleaved
B3: SEP3^(75-178) L135A (domain or fragment, A. thaliana, UniProt O22456 75-178, looked up)
chain: B1 chain with L61A
notes: as for B2
B4: SEP3^(75-178) L131V (domain or fragment, A. thaliana, UniProt O22456 75-178, looked up)
chain: B1 chain with L57V
notes: as for B2
B5: SEP3^(75-178) L115R (domain or fragment, A. thaliana, UniProt O22456 75-178, looked up)
chain: B1 chain with L41R
notes: as for B2
B6: SEP3^(75-178) L135M (domain or fragment, A. thaliana, UniProt O22456 75-178, looked up)
chain: B1 chain with L61M
notes: as for B2
B7: SEP3^(75-178) Y98K (domain or fragment, A. thaliana, UniProt O22456 75-178, looked up)
chain: B1 chain with Y24K
notes: as for B2
B8: SEP3^L115R (natural protein, A. thaliana, UniProt O22456 1-251, looked up)
chain: MGRGRVELKRIENKINRQVTFAKRRNGLLKKAYELSVLCDAEVALIIFSNRGKLYEFCSSSSMLRTLERYQKCNYGAPEPNVPSREALAVELSSQQEYLKLKERYDALQRTQRNRLGEDLGPLSTKELESLERQLDSSLKQIRALRTQFMLDQLNDLQSKERMLTETNKTLRLRLADGYQMPLQLNPNQEEVDHYGRHHHQQQQHSQAFFQPLECEPILQIGYQGQQDGMGAGPSVNNYMLGWLPYDTNSI
notes: also called dimerisation-interface mutant; source: in vitro translated (pSPUTK, Promega SP6 High Yield Expression System), used without further purification
B9: SEP3^L171A (natural protein, A. thaliana, UniProt O22456 1-251, looked up)
chain: B8 chain with R115L, L171A
notes: also called tetramerisation interface mutant; source: in vitro translated (pSPUTK, Promega SP6 High Yield Expression System), used without further purification
B10: SEP3^ΔC (domain or fragment, A. thaliana)
chain: MGRGRVELKRIENKINRQVTFAKRRNGLLKKAYELSVLCDAEVALIIFSNRGKLYEFCSSSSMLRTLERYQKCNYGAPEPNVPSREALAVELSSQQEYLKLKERYDALQRTQRNLLGEDLGPLSTKELESLERQLDSSLKQIRALRTQFMLDQLNDLQSKLADG
notes: also called SEP3 truncation mutant; source: in vitro translated (pSPUTK, Promega SP6 High Yield Expression System), used without further purification

Assays:
[1] = molecular target: the molecule itself; test: SEC; Superdex 200 10/300 GL in Buffer A (30 mM Tris pH 8.0, 300 mM NaCl, 5% glycerol, 2 mM TCEP); oligomeric state against the wild type protein; self-association
[2] = molecular target: the molecule itself; test: native gel or EMSA; in vitro translated proteins (4 ul TnT mix, not purified) with 5-10 nM DY-682 labelled 121 bp SOC1 promoter DNA with two CArG boxes; complexes seen on DNA, assigned as putative dimer and tetramer
[3] = molecular target: the molecule itself; test: native gel or EMSA; in vitro translated proteins (not purified) with Cy5 labelled SOC1 promoter DNA in which CArG box 1 or CArG box 2 is mutated (one site left)

Row | Protein | stoichiometry N [1] | binding result [1] | further results
1 | B1 | 4 and 2 | – | –
2 | B2 | 4 | – | –
3 | B3 | – | binds | –
4 | B4 | – | binds | –
5 | B5 | – | binds | –
6 | B6 | 2 | – | –
7 | B7 | 2 | – | –
8 | B8 | – | – | stoichiometry N [2]: 2
9 | B9 | – | – | stoichiometry N [3]: 4
10 | B10 | – | – | stoichiometry N [2]: 2
